Six molecules from patent publication US20170029484A1 (published 2017) can be followed below.

The target of test [1] is T1, β-catenin peptide on HLA-A*02:01 (human).
T1 peptide: YLD[pS]GIHSGA
Briefly: cytokine release.

Test [2] deals with T1, β-catenin peptide on HLA-A*02:01. Briefly: killing.
The target of test [3] is T2, insulin receptor substrate 2 (IRS-2) peptide on HLA-A*02:01 (human).
T2 peptide: RVA[pS]PTSGV
Briefly: killing.

Test [4] addresses T3, CDC25b (M-phase inducer phosphatase 2) peptide on HLA-A*02:01 (human).
T3 peptide: GLLG[pS]PVRA
Briefly: killing.

In test [5] the target is T4, desmuslin/synemin peptide on HLA-A*02:01 (human).
T4 peptide: RTF[pS]PTYGL
Briefly: cytokine release.

Test [6] deals with T2, insulin receptor substrate 2 (IRS-2) …. Briefly: cytokine release.

Where no end group is shown, it is not given here. [ ]: non-standard residue; d: D form. pS = N[C@@H](COP(=O)(O)O)C(=O)O

B1: βCATA (TCR, V domains shown)
Valpha: GQQVQQSPASLVLQEGENAELQCNFSSTATRLQWFYQHPGGRLVSLFYNPSGTKHTGRLTSTTVTNERRSSLHISSSQTTDSGTYFCAIPPGTGSKLSFGKGAKLTVSP
Vbeta: NTKITQSPRYLILGRANKSLECEQHLGHNAMYWYKQSAEKPPELMFLYNLKQLIRNETVPSRFIPECPDSSKLLLHISAVDPEDSAVYFCASSQGQKQYFGPGTRLTVL
On to B1, for which the binding result in test [1] is “recognises”.

B2: the CDC25b TCR (TCR, V domains shown)
Valpha: GEQVEQRPPHLSVREGDSAVIICTYTDPNSYYFFWYKQEPGAGLQLLMKVFSSTEINEGQGFTVLLNKKDQQLSLNLTAAHPGDSAVYFCAVKPGGYKVVFGSGTRLLVSP
Vbeta: EAAVTQSPRNKVAVTGGKVTLSCNQTNNHNNMYWYRQDTGHGLRLIHYSYGAGSTEKGDIPDGYKASRPSQENFSLILELATPSQTSVYFCASGGDTQYFGPGTRLLVL
As to B2, the binding result in test [2] and in test [3] was “no recognition” each time.

B3: IRS-2A (TCR, V domains shown)
Valpha: AQSVTQPDARVTVSEGASLQLRCKYSYSGTPYLFWYVQYPRQGLQLLLKYYSGDPVVQGVNGFEAEFIKSNSSFHLRKASVHWSDSAVYFCAVSEGADRLTFGKGTQLIIQP
Vbeta: EAGVTQSPRYAVLQEGQAVSFWCDPISGHDTLYWYQQPRDQGPQLLVYFRDEAVIDNSQLPSDRFSAVRPKGTNSTLKIQSAKQGDTATYLCASSLLDSSYEQYFGPGTRLTVL
For B3, in test [4], the binding result was “no recognition”.

B4: DESA (TCR, V domains shown)
Valpha: AQSVTQPDARATVSEGASLRLRCKYSYSGTPYLFWYVQYPRQGLQLLLKYYSGDPVVQGVNGFEAEFSKSNSSFHLRKASVHWSDSAVYFCVLSYSNNRIFFGDGTQLVMKP
Vbeta: DSGVVQSPRHIIKEKGGRSVLTCIPISGHSNVVWYQQTLGKELKFLIQHYEKVERDKGFLPSRFSVQQFDDYHSEMNMSALELEDSAMYFCASSLGGGEVFFGKGTRLTVV
Take B4: the binding result in test [5] is listed as “recognises”.

B5: IRS-2B (TCR, V domains shown)
Valpha: AQSVTQPDARVTVSEGASLQLRCKYSYSGTPYLFWYVQYPRQGLQLLLKYYSGDPVVQGVNGFEAEFIKSNSSFHLRKASVHWSDSAVYFCAVSAGSGGKLTLGAGTRLQVNL
Vbeta: EAAVTQSPRSKVAVTGGKVTLSCHQANNHDYMYWYRQDTGHGLRLIHYSYVADSTEKGDIPDGYKASRPSQENFSLILELASLSQTAVYFCASSDRDNYAEQFFGPGTRLTVL
With B5, the binding result in test [6] is listed as “recognises”.

B6: DESB (TCR, V domains shown)
Valpha: AQSVTQPDARVTVSEGASLQLRCKYSYSGTPYLFWYAQYPRQGLQLLLKYYSGDPVVQGVNGFEAEFSKSNSSFHLRKASVHWSDSAVYFCVLRYGGNNKLTFGQGTVLSVIP
Vbeta: EAAVTQSPRSKVAVTGGKVTLSCHQTNNHDYMYWYRQDTGHGLRLIHYSYVADSTEKGDIPDGYKASRPSQENFSLILELASLSQTAVYFCASRYRDTQYFGPGTRLLVL
Regarding B6, in test [5], the binding result is listed as “recognises”.
